Laboratory results: patent US20220195067A1 (LAMKAP BIO BETA, published 2022)
Changes are numbered by the printed parent chain. Values belong to the binder of their own block, whether it stands above or below them.

Legend:
[1] = target: T1, human CEACAM5 on CEACAM5-expressing cancer cell lines (human, UniProt P06731 35-685); assay: flow cytometry on LoVo cells (carry CEACAM5 and CD47), PE anti-human IgG Fc
T1 construct: whole, on cells; also called CEACAM5 on SK-CO-1, MKN-45, HPAF-II, SNU-C1, Ls174T, LoVo cells
T1 sequence (looked up): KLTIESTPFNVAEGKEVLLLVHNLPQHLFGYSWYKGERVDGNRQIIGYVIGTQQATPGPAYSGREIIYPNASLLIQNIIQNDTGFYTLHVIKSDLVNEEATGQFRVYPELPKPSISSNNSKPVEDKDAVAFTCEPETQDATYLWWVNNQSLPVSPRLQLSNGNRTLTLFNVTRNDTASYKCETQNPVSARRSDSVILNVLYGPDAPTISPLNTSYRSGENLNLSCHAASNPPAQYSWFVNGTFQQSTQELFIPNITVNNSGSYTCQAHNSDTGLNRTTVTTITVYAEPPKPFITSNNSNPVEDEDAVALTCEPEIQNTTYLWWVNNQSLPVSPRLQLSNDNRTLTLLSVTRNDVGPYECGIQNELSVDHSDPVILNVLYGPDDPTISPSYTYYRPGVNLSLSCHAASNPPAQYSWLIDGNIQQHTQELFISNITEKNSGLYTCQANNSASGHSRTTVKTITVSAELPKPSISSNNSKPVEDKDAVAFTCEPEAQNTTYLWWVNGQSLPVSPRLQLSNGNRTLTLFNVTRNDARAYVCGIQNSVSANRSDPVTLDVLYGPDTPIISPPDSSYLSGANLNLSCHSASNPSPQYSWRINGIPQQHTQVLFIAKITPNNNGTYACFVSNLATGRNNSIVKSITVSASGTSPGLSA
Experimental: (§1) The binding of CD47×CEACAM5 bispecific antibodies was tested on CEACAM5-expressing human gastric adenocarcinoma cells (e.g. MKN-45), on CEACAM5-expressing human colorectal cancer cells (SK-CO-1, SNU-C1, Ls174T, and LoVo), and on CEACAM5-expressing pancreatic adenocarcinoma cells (HPAF-II).
(§2) Cells were harvested, counted, checked for viability and resuspended at 3×10⁶ cells/ml in FACS buffer (PBS 2% BSA, 0.1% NaN3). 100 μl of the cell suspension was distributed in V-bottom 96-well plates (3×10⁵ cells/well). The supernatant was removed by centrifugation 3 minutes at 4° C., 1300 rpm. Increasing concentrations of the antibody according to the invention were then added into the wells and incubated for 15 minutes at 4° C. Cells were washed twice with cold FACS buffer and re-incubated for further 15 minutes at 4° C. with the PE (R-phycoerythrin)-conjugated mouse anti-human IgG Fc secondary antibody (SouthernBiotech, pre-diluted 1:100 in FACS buffer). Cells were washed twice with cold FACS buffer and resuspended in 300 μl FACS buffer with 1:15000-diluted SytoxBlue (Life Technologies). Fluorescence, specifically mean fluorescence […] (MFI), was determined using a Cytoflex […] flow cytometer. Binding curves and […] and Emax values were obtained and calculated using GraphPad Prism7 software.

[2] = target: T1, human CEACAM5 on CEACAM5-expressing …; assay: flow cytometry on Ls174T cells (carry CEACAM5 and CD47), PE anti-human IgG Fc
Experimental: as §1, §2

[3] = target: T1, human CEACAM5 on CEACAM5-expressing …; assay: flow cytometry on MKN-45 cells (carry CEACAM5 and CD47), PE anti-human IgG Fc
Experimental: as §1, §2

[4] = target: T1, human CEACAM5 on CEACAM5-expressing …; assay: flow cytometry on SNU-C1 cells (carry CEACAM5 and CD47), PE anti-human IgG Fc
Experimental: as §1, §2

[5] = target: T1, human CEACAM5 on CEACAM5-expressing …; assay: flow cytometry on HPAF-II cells (carry CEACAM5 and CD47), PE anti-human IgG Fc
Experimental: as §1, §2

[6] = target: T1, human CEACAM5 on CEACAM5-expressing …; assay: flow cytometry on SK-CO-1 cells (carry CEACAM5 and CD47), PE anti-human IgG Fc
Experimental: as §1, §2

[7] = target: T2, human CD47 expressed at the surface of MKN-45 cells (human, UniProt Q08722 19-323); assay: CD47/SIRPα blocking assay on MKN-45 cells (carry CD47 and CEACAM5), imaging of bound SIRPα-mouseFc
T2 construct: whole, on cells; MKN-45 cells express both CD47 and CEACAM5; also called hCD47
From the text: The cell-based assay monitoring the interaction of soluble SIRPa with human CD47 expressed at the surface of MKN-45 cells as described below was used for the detection of the blocking activity. Concentration-response experiments with bispecific antibodies according to the invention allowed determination of inhibition curves (see FIG. 4) and of IC50 values (see Table 12).
MKN-45 cancer cells, expressing both CD47 and CEACAM5, were stained with CFSE violet to allow the imaging system (CX5) to detect the cells. Briefly, 3'000 stained MKN-45 cells per well were seeded in a 384 optical well plate (Costar) and incubated for 50 minutes with increased concentrations of bispecific antibodies of the invention ([…] to 333 nM, in quadruplicates). Then, a fixed concentration of SIRPα-mouseFc premixed with anti-mouse IgG-Fc AF647 coupled antibody (Jackson Immunoresearch diluted 1:2000) was added at 50 ng/mL final. After an incubation of 3 hours and 30 minutes, images of the fluorescence signals emitted by the detected bound SIRPa on the plates were acquired with the imaging system (CX5, Thermo Fisher). Fluorescence signals (mean fluorescence intensity MFI) were plotted according to the dose range tested, and IC50 was calculated by the software (Prism, GraphPad).

T2 sequence (Q08722 19-323): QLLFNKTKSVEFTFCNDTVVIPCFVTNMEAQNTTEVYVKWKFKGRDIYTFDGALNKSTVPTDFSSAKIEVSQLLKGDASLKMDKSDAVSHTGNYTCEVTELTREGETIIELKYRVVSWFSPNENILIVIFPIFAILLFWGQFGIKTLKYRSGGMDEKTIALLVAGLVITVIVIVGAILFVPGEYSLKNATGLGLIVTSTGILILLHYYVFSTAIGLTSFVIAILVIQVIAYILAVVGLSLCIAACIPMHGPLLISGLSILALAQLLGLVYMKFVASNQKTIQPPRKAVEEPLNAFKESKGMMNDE

EC50 [1]: 22 nM
Emax (MFI) [1]: 260000 MFI
EC50 [2]: 11.3 nM
Emax (MFI) [2]: 77000 MFI
EC50 [3]: 10 nM
Emax (MFI) [3]: 1.18e+06 MFI
EC50 [4]: 4.4 nM
Emax (MFI) [4]: 280000 MFI
EC50 [5]: 11.3 nM
Emax (MFI) [5]: 940000 MFI
EC50 [6]: 17.3 nM
Emax (MFI) [6]: 900000 MFI
IC50 [7]: 0.07 nM
B1: K2AC82 (bispecific antibody, human IgG1, kappa, lambda)
heavy: not shown
light 1: QSVLTQPPSVSAAPGQKVTISCSGSSSNIGYGLVSWYQQLPGTAPKLLIYGINKRPSGIPDRFSGSKSGTSATLGITGLQTGDEADYYCGTWDFSYRVDFGGGTKLTVLGQPKAAPSVTLFPPSSEELQANKATLVCLISDFYPGAVTVAWKADSSPVKAGVETTTPSKQSNNKYAASSYLSLTPEQWKSHRSYSCQVTHEGSTVEKTVAPTECS
light 2: not shown
notes: Kappa-lambda body; also called CD47xCEACAM5 bispecific antibody K2AC82; AC82 (CEACAM5 arm)

EC50 [1]: 16 nM
Emax (MFI) [1]: 380000 MFI
EC50 [2]: 6 nM
Emax (MFI) [2]: 100000 MFI
EC50 [3]: 8 nM
Emax (MFI) [3]: 1.64e+06 MFI
EC50 [4]: 2.53 nM
Emax (MFI) [4]: 400000 MFI
EC50 [6]: 12.7 nM
Emax (MFI) [6]: 1.3e+06 MFI
IC50 [7]: 0.05 nM
B2: K2AC91 (bispecific antibody, human IgG1, kappa, lambda)
heavy: not shown
light 1: B1 light 1 with Y31I, G51T, I52V, K54N, W92F, R97G, V98I, D99V
light 2: not shown
notes: Kappa-lambda body; also called CD47xCEACAM5 bispecific antibody K2AC91; AC91 (CEACAM5 arm)

EC50 [1]: 20 nM
Emax (MFI) [1]: 320000 MFI
EC50 [2]: 6.7 nM
Emax (MFI) [2]: 70000 MFI
EC50 [3]: 8 nM
Emax (MFI) [3]: 1.35e+06 MFI
EC50 [4]: 3.13 nM
Emax (MFI) [4]: 370000 MFI
EC50 [5]: 7.3 nM
Emax (MFI) [5]: 1.2e+06 MFI
EC50 [6]: 14.7 nM
Emax (MFI) [6]: 1.1e+06 MFI
IC50 [7]: 0.08 nM
B3: K2AC117 (bispecific antibody, human IgG1, kappa, lambda)
heavy: not shown
light 1: B1 light 1 with Y31I, G51N, I52G, K54V
light 2: not shown
notes: Kappa-lambda body; also called CD47xCEACAM5 bispecific antibody K2AC117; AC117 (CEACAM5 arm)
